Three molecules from patent US20240376171A1 (Hoffmann-La Roche, published 2024) can be followed below.

Usually EC50 (read off the curve) stands for the concentration that produces a half-maximal response. A lower EC50 (read off the curve) goes with a more potent agent.

The target of assay [1] is T1, PD1 on activated human CD4 and CD8 T cells (human, UniProt Q15116 25-288).
T1 construct: whole, on cells; Endogenous PD1 on CD3/CD28-stimulated T cells; also called human PD1; PD1 receptor
The assay is described as follows: flow cytometry, CD3/CD28-activated human PBMCs gated on CD3+CD4+ T cells, FITC anti-human Fc secondary antibody; no Matriptase digestion described. As for the experimental part: (§1) PBMCs were bought from Biomex from a healthy donor (Lot 5000899PB). The PBMCs were stimulated for 3 days with CD3 and CD28 to induce upregulation of PD1 on T cells. Therefore, PBMCs were seeded in medium (RPMI1640, 10% FCS, 2 mM Glutamine) into cell culture flasks that were coated for 1 h at 37° C. with 1 μg/ml CD3 (clone OKT3, 302914, BioLegend). CD28 was added in solution to the PBMCs at a concentration of 1 μg/ml (clone CD28.2, 302914, BioLegend). After three days, PBMCs were harvested and transferred into a 96 well round bottom plate (200′000 cells per well). The cells were washed with FACS buffer (PBS, 2% FBS, 5 mM EDTA, 0.025% NaN3) and stained with 30 μl of corresponding TA PD1-IL2v constructs in FACS buffer for 30 min at 4° C. The cells were washed twice with FACS buffer to remove unbound molecules. Then 30 μl of the diluted FITC anti-mouse Fc specific secondary antibody (1:50 dilution, 115-096-071, Jackson ImmunoResearch) or for the human constructs the diluted FITC anti-human Fc specific secondary antibody (1:50 dilution, 115-096-098, Jackson ImmunoResearch) was added to the cells. After 30 min incubation at 4° C. the cells were washed twice with FACS buffer. To detect T cells, PBMCs were stained with 30 μl of a mixture of CD3 PE/Cyanine7 (clone UCHT1, 300420, BioLegend), CD4 PE (clone RPA-T4, 300508, BioLegend) and CD8 APC (clone SK1, 344722, BioLegend) for 30 min at 4° C. The unbound antibodies were removed by washing twice with FACS buffer. Finally the cells were resuspended in 150 μl FACs buffer and measured using a BD Fortessa gating on CD3+CD4+ cells (CD4 T cells) and CD3+CD8+ cells (CD8 T cells).
In general terms: In flow cytometry, cells or beads pass a laser one at a time.

In assay [2] the target is T1, PD1 on activated human CD4 and CD8 T …. The assay is described as follows: flow cytometry, CD3/CD28-activated human PBMCs gated on CD3+CD8+ T cells, PE anti-human Fc secondary antibody; TA constructs pre-incubated with Matriptase, unmasked controls not. As for the experimental part:
(§2) Three formats of TA PD1-IL2v molecules and respective controls were assessed for their capacity to bind to activated PD1 positive CD8 T cells and CD4 T cells within PBMCs in comparison to the respective unmasked molecules.
(§3) PBMCs were purchased from Biomex from a healthy donor (Lot 5000729PB). The PBMCs were stimulated for three days with CD3 and CD28 to induce upregulation of PD1 on T cells. Therefore, PBMCs were seeded in medium (RPMI1640, 10% FCS, 2 mM Glutamine) into cell culture flasks that were coated for 1 hour at 37° C. with 1 μg/ml CD3 (clone OKT3, 302914, BioLegend). CD28 was added in solution to the PBMCs at a concentration of 1 μg/ml (clone CD28.2, 302914, BioLegend). After three days, PBMCs were harvested and transferred into a 96 well round bottom plate (200′000 cells per well). The cells were washed with FACS buffer (PBS, 2% FBS, 5 mM EDTA, 0.025% NaN3) and stained with 30 μl of corresponding TA PD1-IL2v constructs in FACS buffer for 30 min at 4° C. Prior to the staining, 20 μg of the TA PD1-IL2v constructs were digested with 4 μl Matriptase (Enzo ˜2.5 U/μl, ALX-201-246-U25, Lot 12152015, or without Matriptase for the unmasked controls) for 2 hours at 37° C. in 40 μl Matriptase buffer (50 mM Tris, 50 mM NaCl, 0.01% Tween 20, pH 9.0). After the staining, the cells were washed twice with FACS buffer to remove unbound molecules. Then 30 μl of the diluted PE anti-human Fc specific secondary antibody (1:50 dilution, 109-116-170, Jackson ImmunoResearch) was added to the cells. After 30 min incubation at 4° C. the cells were washed twice with FACS buffer. To detect T cells, PBMCs were stained with 30 μl of a mixture of CD3 PE/Cyanine7 (clone UCHT1, 300420, BioLegend), CD4 FITC (clone RPA-T4, 300528, BioLegend) and CD8 APC/Cyanine7 (clone HIT8a, 300926, BioLegend) for 30 min at 4° C. The unbound antibodies were removed by washing twice with FACS buffer. Finally the cells resuspended in 150 μl FACS buffer and measured using a BD Fortessa gating on CD3+CD4+ cells (CD4 T cells) and CD3+CD8+ cells (CD8 T cells).

Assay [3] shares this target. The assay can be described thus: flow cytometry, CD3/CD28-activated human PBMCs gated on CD3+CD4+ T cells, PE anti-human Fc secondary antibody; TA constructs pre-incubated with Matriptase, unmasked controls not. The procedure:
as §2, §3

Assay [4] shares this target. The assay is described as follows: flow cytometry, CD3/CD28-activated human PBMCs gated on CD3+CD8+ T cells, FITC anti-human Fc secondary antibody; no Matriptase digestion described. As for the experimental part: as §1
For assay [5] the target is unchanged. The assay is described as follows: flow cytometry, CD3/CD28-activated human PBMCs gated on CD3+CD8+ T cells, FITC anti-mouse Fc secondary antibody; no Matriptase digestion described. As for the experimental part: as §1, with “To detect T cells, PBMCs were stained with 30 μl of a mixture of CD3 PE/Cyanine7 (clone UCHT1, 300420, BioLegend), CD4 PE (clone RPA-T4, 300508, BioLegend) and CD8 APC (clone SK1, 344722, BioLegend) for 30 min at 4° C. The unbound antibodies were removed by washing twice with FACS buffer.” left out

Assay [6] shares this target. The assay is described as follows: flow cytometry, CD3/CD28-activated human PBMCs gated on CD3+CD4+ T cells, FITC anti-mouse Fc secondary antibody; no Matriptase digestion described. The procedure:
as §1, with “To detect T cells, PBMCs were stained with 30 μl of a mixture of CD3 PE/Cyanine7 (clone UCHT1, 300420, BioLegend), CD4 PE (clone RPA-T4, 300508, BioLegend) and CD8 APC (clone SK1, 344722, BioLegend) for 30 min at 4° C. The unbound antibodies were removed by washing twice with FACS buffer.” left out

T1 sequence (Q15116 25-288): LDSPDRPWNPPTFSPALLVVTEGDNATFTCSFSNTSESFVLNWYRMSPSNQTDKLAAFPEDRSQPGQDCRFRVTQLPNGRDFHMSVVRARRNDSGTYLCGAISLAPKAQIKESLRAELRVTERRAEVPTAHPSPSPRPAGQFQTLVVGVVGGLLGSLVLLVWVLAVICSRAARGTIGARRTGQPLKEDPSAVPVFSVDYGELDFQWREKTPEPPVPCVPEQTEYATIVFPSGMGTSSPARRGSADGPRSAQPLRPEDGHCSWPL

B1: human PD1-IL2v, unmasked, in line (antibody, human IgG1, kappa, L234A L235A)
light: DIVMTQSPDSLAVSLGERATINCKASESVDTSDNSFIHWYQQKPGQSPKLLIYRSSTLESGVPDRFSGSGSGTDFTLTISSLQAEDVAVYYCQQNYDVPWTFGQGTKVEIKRTVAAPSVFIFPPSDEQLKSGTASVVCLLNNFYPREAKVQWKVDNALQSGNSQESVTEQDSKDSTYSLSSTLTLSKADYEKHKVYACEVTHQGLSSPVTKSFNRGEC
heavy 1: EVQLLESGGGLVQPGGSLRLSCAASGFSFSSYTMSWVRQAPGKGLEWVATISGGGRDIYYPDSVKGRFTISRDNSKNTLYLQMNSLRAEDTAVYYCVLLTGRVYFALDSWGQGTLVTVSSASTKGPSVFPLAPSSKSTSGGTAALGCLVKDYFPEPVTVSWNSGALTSGVHTFPAVLQSSGLYSLSSVVTVPSSSLGTQTYICNVNHKPSNTKVDKKVEPKSCDKTHTCPPCPAPEAAGGPSVFLFPPKPKDTLMISRTPEVTCVVVDVSHEDPEVKFNWYVDGVEVHNAKTKPREEQYNSTYRVVSVLTVLHQDWLNGKEYKCKVSNKALGAPIEKTISKAKGQPREPQVCTLPPSRDELTKNQVSLSCAVKGFYPSDIAVEWESNGQPENNYKTTPPVLDSDGSFFLVSKLTVDKSRWQQGNVFSCSVMHEALHNHYTQKSLSLSPG
heavy 2: not shown
notes: Bivalent human PD1-targeted human IgG PG LALA with IL2v fused to the C-terminus of the Fc knob chain (non-masked control); also called P1AA7146; P1AA7146-006
Take B1: the “EC50 (read off the curve)” value is roughly 2 nM in assay [1], roughly 0.8 nM in assay [2], roughly 0.7 nM in assay [3] and roughly 2 nM in assay [4].

B2: murine TA PD1-IL2v, MT204, 2xPQARK, in line (antibody, mouse IgG1, kappa)
light: KIVLTQSPASLPVSLGQRATISCRASESVDTSDNSFIHWYQQRPGQSPKLLIYRSSTLESGVPARFSGSGSRTDFTLTIDPVEADDVATYYCQQNYDVPWTFGGGTKLEIKRADAAPTVSIFPPSSEQLTSGGASVVCFLNNFYPKDINVKWKIDGSERQNGVLNSWTDQDSKDSTYSMSSTLTLTKDEYERHNSYTCEATHKTSTSPIVKSFNRNEC
heavy 1: EVILVESGGGLVKPGGSLKLSCAASGFSFSSYTMSWVRQTPEKRLDWVATISGGGRDIYYPDSVKGRFTISRDNAKNTLYLEMSSLMSEDTALYYCVLLTGRVYFALDSWGQGTSVTVSSAKTTPPSVYPLAPGSAAQTNSMVTLGCLVKGYFPEPVTVTWNSGSLSSGVHTFPAVLQSDLYTLSSSVTVPSSTWPSQTVTCNVAHPASSTKVDKKIVPRDCGCKPCICTVPEVSSVFIFPPKPKDVLTITLTPKVTCVVVAISKDDPEVQFSWFVDDVEVHTAQTKPREEQINSTFRSVSELPIMHQDWLNGKEFKCRVNSAAFGAPIEKTISKTKGRPKAPQVYTIPPPKKQMAKDKVSLTCMITNFFPEDITVEWQWNGQPAENYKNTQPIMKTDGSYFVYSKLNVQKSNWEAGNTFTCSVLHEGLHNHHTEKSLSHSPG
heavy 2: EVILVESGGGLVKPGGSLKLSCAASGFSFSSYTMSWVRQTPEKRLDWVATISGGGRDIYYPDSVKGRFTISRDNAKNTLYLEMSSLMSEDTALYYCVLLTGRVYFALDSWGQGTSVTVSSAKTTPPSVYPLAPGSAAQTNSMVTLGCLVKGYFPEPVTVTWNSGSLSSGVHTFPAVLQSDLYTLSSSVTVPSSTWPSQTVTCNVAHPASSTKVDKKIVPRDCGCKPCICTVPEVSSVFIFPPKPKDVLTITLTPKVTCVVVAISKDDPEVQFSWFVDDVEVHTAQTKPREEQINSTFRSVSELPIMHQDWLNGKEFKCRVNSAAFGAPIEKTISKTKGRPKAPQVYTIPPPKEQMAKDKVSLTCMITNFFPEDITVEWQWNGQPAENYDNTQPIMDTDGSYFVYSDLNVQKSNWEAGNTFTCSVLHEGLHNHHTEKSLSHSPGGGGGSGGGGSGGGGGAPASSSTKKTQLQLEHLLLDLQMILNGINNYKNPKLTRMLTAKFAMPKKATELKHLQCLEEELKPLEEVLNGAQSKNFHLRPRDLISNINVIVLELKGSETTFMCEYADETATIVEFLNRWITFAQSIISTLTGGGGSGGGGSPQARKGGGGSGGGGSGGGGSGGGGSGGGEVQLVESGGGLVQPGGSLRLSCAASGFTFSSYTLAWVRQAPGKGLEWVAAIDSSSYTYSPDTVRGRFTISRDNAKNSLYLQMNSLRAEDTAVYYCARDSNWDALDYWGQGTTVTVSSGGGGSGGPQARKGGGGSGGGDIQMTQSPSSLSASVGDRVTITCKASQNVGTNVGWYQQKPGKAPKALIYSASFRYSGVPSRFSGSGSGTDFTLTISSLQPEDFATYYCQQYYTYPYTFGGGTKVEIK
notes: Murine surrogate: bivalent human PD1-targeted murine IgG DA PG with masked human IL2v in-line on the C-terminus of the Fc DD- chain, two PQARK sites; also called P1AG9983; P1AG9983-001
As for B2, the “EC50 (read off the curve)” value in assay [5] and in assay [6] was roughly 2 nM each time.

B3: murine PD1-IL2v, unmasked, in line (antibody, mouse IgG1, kappa)
light: B2 light
heavy 1: B2 heavy 1
heavy 2: EVILVESGGGLVKPGGSLKLSCAASGFSFSSYTMSWVRQTPEKRLDWVATISGGGRDIYYPDSVKGRFTISRDNAKNTLYLEMSSLMSEDTALYYCVLLTGRVYFALDSWGQGTSVTVSSAKTTPPSVYPLAPGSAAQTNSMVTLGCLVKGYFPEPVTVTWNSGSLSSGVHTFPAVLQSDLYTLSSSVTVPSSTWPSQTVTCNVAHPASSTKVDKKIVPRDCGCKPCICTVPEVSSVFIFPPKPKDVLTITLTPKVTCVVVAISKDDPEVQFSWFVDDVEVHTAQTKPREEQINSTFRSVSELPIMHQDWLNGKEFKCRVNSAAFGAPIEKTISKTKGRPKAPQVYTIPPPKEQMAKDKVSLTCMITNFFPEDITVEWQWNGQPAENYDNTQPIMDTDGSYFVYSDLNVQKSNWEAGNTFTCSVLHEGLHNHHTEKSLSHSPGGGGGSGGGGSGGGGGAPASSSTKKTQLQLEHLLLDLQMILNGINNYKNPKLTRMLTAKFAMPKKATELKHLQCLEEELKPLEEVLNGAQSKNFHLRPRDLISNINVIVLELKGSETTFMCEYADETATIVEFLNRWITFAQSIISTLT
notes: Murine surrogate: bivalent human PD1-targeted murine IgG DA PG with IL2v fused to the C-terminus of the Fc DD- chain (non-masked control); also called P1AG7552; P1AG7552-006
Turning to B3, the “EC50 (read off the curve)” value in assay [5] and in assay [6] was roughly 2 nM each time.
